According to patent US20260000764A1 (CITY OF HOPE, published 2026):
Changes are numbered by the printed parent chain. One block for each binder: values may come before it.

Tests used:
[1] = molecular target: T1, Biotinylated recombinant human IL-13Rα1 ectodomain with C-terminal biotin acceptor peptide and hexahistidine … (human, UniProt P78552 22-343, biotin on the biotin acceptor peptide (coexpressed with BirA ligase)); assay: SPR; ratio column of the drawn table, IL13Rα1
T1 construct: extracellular domain; also called recombinant IL13Rα1; biotinylated IL13Rα1
T1 sequence: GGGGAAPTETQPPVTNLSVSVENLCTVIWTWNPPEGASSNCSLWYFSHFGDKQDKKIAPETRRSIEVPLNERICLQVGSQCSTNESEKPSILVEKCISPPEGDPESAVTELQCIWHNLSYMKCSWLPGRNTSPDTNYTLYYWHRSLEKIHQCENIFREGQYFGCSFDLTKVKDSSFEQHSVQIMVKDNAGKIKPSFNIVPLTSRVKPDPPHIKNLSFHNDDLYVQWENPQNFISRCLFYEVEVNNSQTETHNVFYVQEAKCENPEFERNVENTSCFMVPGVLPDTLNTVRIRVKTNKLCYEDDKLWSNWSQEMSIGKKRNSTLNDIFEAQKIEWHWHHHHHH
From the text: (§1) FIG. 2A-2F: IL-13Rα1 and IL-13Rα2 binding affinities of the IL-13 variant. (A-C) Surface plasmon resonance measurements of IL-13, IL-13 D7 and IL-13 C4 for IL-13Rα1. IL-13Rα1 was immobilized on the surface of the chip and the indicated doses of IL-13 or the two IL-13 mutants were flowed. (D-F) Surface plasmon resonance measurements of IL-13,IL-13 D7 and IL-13 C4 for IL-13Rα2. IL-13Rα2 was immobilized on the surface of the chip and the indicated doses of IL-13 or the two IL-13 mutants were flowed.
(§2) SPR experiments were conducted on a Biacore T100 instrument using a Biacore SA sensor chip (GE Healthcare). Biotinylated IL-13Rα1/IL-13Rα2 was captured at a low density (50-100 response units (RU)) and kinetics measurements were conducted at 30 μL/min. An unrelated biotinylated protein was immobilized as a reference surface for the SA sensor chip with matching RU to the experimental surface. All measurements were made using 3-fold serial dilutions of IL-13 agonists in the running buffer (1×HBS-P, 0.1% BSA). The IL-13Rα1/IL-13Rα2 bound to the chip surface was regenerated with 7 mM glycine (pH 3.0) and 250 mM NaCl. Kinetic parameters were determined using 120 s to 190 s of IL-13 agonist association time and 20 s to 1200 s dissociation time. All data fitting was performed using the Biacore T100 evaluation software version 2.0 with a 1:1 Langmuir binding model.

[2] = molecular target: T2, Biotinylated recombinant human IL-13Rα2 ectodomain with C-terminal biotin acceptor peptide and hexahistidine … (human, UniProt Q14627 27-343, biotin on the biotin acceptor peptide (coexpressed with BirA ligase)); assay: SPR; ratio of the affinities for IL13Rα2 and IL13Rα1 (reference: IL13Rα1)
T2 construct: extracellular domain; also called recombinant IL13Rα2; biotinylated IL13Rα2
T2 sequence: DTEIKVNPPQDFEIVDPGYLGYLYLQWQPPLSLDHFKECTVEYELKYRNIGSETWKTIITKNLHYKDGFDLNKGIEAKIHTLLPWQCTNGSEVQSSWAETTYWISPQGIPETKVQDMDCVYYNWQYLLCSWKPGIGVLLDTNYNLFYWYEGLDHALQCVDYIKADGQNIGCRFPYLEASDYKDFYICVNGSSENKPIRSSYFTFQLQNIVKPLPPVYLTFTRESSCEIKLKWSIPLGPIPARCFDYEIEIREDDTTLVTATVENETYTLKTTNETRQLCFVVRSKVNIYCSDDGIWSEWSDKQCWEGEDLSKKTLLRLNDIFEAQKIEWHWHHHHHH
Method: as §2

[3] = molecular target: T2, Biotinylated recombinant human IL-13Rα2 …; assay: SPR, Biacore T100, biotinylated receptor captured on SA chip, cytokine flowed, 1:1 Langmuir fit
Method: as §2

[4] = molecular target: T2, Biotinylated recombinant human IL-13Rα2 …; assay: SPR, IL-13Rα2 immobilized on the chip, IL-13 C4 flowed; panel titled IL-13C4/IL-13Rα2
From the text: as §1, §2

[5] = molecular target: T2, Biotinylated recombinant human IL-13Rα2 …; assay: SPR (Biacore T100), biotinylated IL-13Rα2 captured on SA chip, IL-13 C4 flowed, 1:1 Langmuir fit
From the text: as §1, §2

[6] = molecular target: T1, Biotinylated recombinant human IL-13Rα1 …; assay: SPR (Biacore T100), biotinylated IL-13Rα1 captured on SA chip, IL-13 C4 flowed; Ka and Kd cells are empty
Method: as §2

[7] = molecular target: T1, Biotinylated recombinant human IL-13Rα1 …; assay: SPR, IL-13Rα1 immobilized on the chip, IL-13 C4 flowed; panel titled IL-13C4/IL-13Rα1; Kon and Koff cells empty
From the text: as §1, §2

[8] = molecular target: T2, Biotinylated recombinant human IL-13Rα2 …; assay: SPR, IL-13Rα2 immobilized on the chip, IL-13 D7 flowed; panel titled IL-13D7/IL-13Rα2
From the text: as §1, §2

[9] = molecular target: T2, Biotinylated recombinant human IL-13Rα2 …; assay: SPR (Biacore T100), biotinylated IL-13Rα2 captured on SA chip, IL-13 D7 flowed, 1:1 Langmuir fit
Method: as §2

[10] = molecular target: T1, Biotinylated recombinant human IL-13Rα1 …; assay: SPR (Biacore T100), biotinylated IL-13Rα1 captured on SA chip, IL-13 D7 flowed; Ka and Kd cells are empty
Method: as §2

[11] = molecular target: T1, Biotinylated recombinant human IL-13Rα1 …; assay: SPR, IL-13Rα1 immobilized on the chip, IL-13 D7 flowed; panel titled IL-13D7/IL-13Rα1; Kon and Koff cells empty
From the text: as §1, §2

KDwt/KD mut [1]: 8200 | fold stronger affinity for IL13Rα2 relative to IL13Rα1 [2]: 92000 fold | Kd [3]: 393 pM | koff [4]: 0.000764 s⁻¹ | kon [4]: 1.94e+06 M⁻¹ s⁻¹ | koff [5]: 0.000764 s⁻¹ | kon [5]: 1.94e+06 M⁻¹ s⁻¹ | Kd [6]: 36 µM | Kd [7]: 36 µM
B1: IL13 C4 variant, soluble recombinant protein with C-terminal hexahistidine tag (ligand)
chain: GPVPPSTAVRELIEELVNITQNQKAPLCNGSMVWSINLTAGMYCAALESLINVSGCSAIEKTQRMLSGFCPHKVSAGQFSSLHVRDTRIEVAQFVKDLLNHLKELFTEGQFNHHHHHH
notes: also called C4 mutein

KDwt/KD mut [1]: 940 | fold stronger affinity for IL13Rα2 relative to IL13Rα1 [2]: 1.4e+06 fold | Kd [3]: 3 pM | koff [8]: 5.37e-05 s⁻¹ | kon [8]: 1.77e+07 M⁻¹ s⁻¹ | koff [9]: 5.37e-05 s⁻¹ | kon [9]: 1.77e+07 M⁻¹ s⁻¹ | Kd [10]: 4.1 µM | Kd [11]: 4.1 µM
B2: IL13 D7 variant, soluble recombinant protein with C-terminal hexahistidine tag (ligand)
chain: B1 chain with V9A, V17F, Q63K, S80P, R85K, D86K, N100I, K103R, E104K, T107K
notes: also called D7 mutein
